Experimental data: article PMC4784688 (Developmental cell, 2015)

Legend:
[1] = target: T1, Slitrk5 (UniProt O94991); assay: PTPδ-Fc dissociation from cells
T1 chain: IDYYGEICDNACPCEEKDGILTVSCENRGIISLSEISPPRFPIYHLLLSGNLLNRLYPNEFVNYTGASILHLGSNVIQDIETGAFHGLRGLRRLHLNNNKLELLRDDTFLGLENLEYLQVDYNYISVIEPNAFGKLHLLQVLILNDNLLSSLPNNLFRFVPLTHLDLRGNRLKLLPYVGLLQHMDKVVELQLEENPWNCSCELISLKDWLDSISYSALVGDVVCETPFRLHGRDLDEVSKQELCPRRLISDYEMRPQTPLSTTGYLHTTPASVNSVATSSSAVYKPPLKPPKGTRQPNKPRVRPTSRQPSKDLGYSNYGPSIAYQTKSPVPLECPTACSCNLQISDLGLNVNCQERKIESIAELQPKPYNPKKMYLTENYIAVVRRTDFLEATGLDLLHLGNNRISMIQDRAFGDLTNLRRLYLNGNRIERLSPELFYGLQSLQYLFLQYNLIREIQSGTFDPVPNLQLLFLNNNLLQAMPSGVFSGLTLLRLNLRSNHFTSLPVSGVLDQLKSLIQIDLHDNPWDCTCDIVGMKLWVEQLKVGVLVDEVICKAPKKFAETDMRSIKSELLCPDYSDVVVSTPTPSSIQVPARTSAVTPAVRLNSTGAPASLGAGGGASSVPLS

[2] = target: T2, soluble purified PTPδ ectodomain fused to the Fc region of human immunoglobulin (UniProt Q64487 21-1266); assay: immunostaining of cells or tissue
T2 sequence (looked up): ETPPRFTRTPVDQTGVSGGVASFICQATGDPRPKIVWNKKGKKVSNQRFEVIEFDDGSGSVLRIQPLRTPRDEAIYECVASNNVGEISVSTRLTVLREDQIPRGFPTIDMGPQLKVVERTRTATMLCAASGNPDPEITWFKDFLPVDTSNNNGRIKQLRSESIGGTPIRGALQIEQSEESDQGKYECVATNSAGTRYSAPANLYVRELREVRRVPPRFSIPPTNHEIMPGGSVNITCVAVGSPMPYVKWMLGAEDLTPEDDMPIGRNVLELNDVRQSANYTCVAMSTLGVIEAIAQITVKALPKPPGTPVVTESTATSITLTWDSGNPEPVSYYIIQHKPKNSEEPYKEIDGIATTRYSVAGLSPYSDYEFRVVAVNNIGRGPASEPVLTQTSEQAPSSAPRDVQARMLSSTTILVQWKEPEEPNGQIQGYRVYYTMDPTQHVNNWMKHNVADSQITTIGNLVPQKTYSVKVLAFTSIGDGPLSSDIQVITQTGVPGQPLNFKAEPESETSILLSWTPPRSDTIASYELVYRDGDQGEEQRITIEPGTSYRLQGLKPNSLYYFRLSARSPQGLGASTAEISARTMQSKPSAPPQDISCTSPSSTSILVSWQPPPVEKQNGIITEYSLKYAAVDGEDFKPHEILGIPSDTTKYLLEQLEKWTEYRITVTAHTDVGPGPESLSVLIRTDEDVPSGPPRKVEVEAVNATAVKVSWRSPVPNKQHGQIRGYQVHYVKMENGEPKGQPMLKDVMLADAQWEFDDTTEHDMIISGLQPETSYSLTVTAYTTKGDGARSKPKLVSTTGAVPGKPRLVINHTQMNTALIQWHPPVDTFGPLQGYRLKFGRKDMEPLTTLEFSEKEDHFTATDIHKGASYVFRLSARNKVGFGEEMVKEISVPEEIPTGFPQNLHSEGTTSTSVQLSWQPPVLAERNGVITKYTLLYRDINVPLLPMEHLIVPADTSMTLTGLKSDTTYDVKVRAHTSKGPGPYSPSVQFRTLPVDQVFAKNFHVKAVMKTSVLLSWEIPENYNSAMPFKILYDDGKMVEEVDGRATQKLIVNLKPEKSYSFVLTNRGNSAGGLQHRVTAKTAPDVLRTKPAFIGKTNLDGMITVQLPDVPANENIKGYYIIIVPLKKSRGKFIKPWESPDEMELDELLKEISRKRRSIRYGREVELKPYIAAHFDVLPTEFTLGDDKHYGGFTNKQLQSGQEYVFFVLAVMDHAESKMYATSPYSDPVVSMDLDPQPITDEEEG

B1: BDNF (protein)
chain: HSDPARRGELSVCDSISEWVTAADKKTAVDMSGGTVTVLEKVPVSKGQLKQYFYETKCNPMGYTKEGCRGIDKRHWNSQCRTTQSYVRALTMDSKKRIGWRFIRIDTSCVCTLTIKRGR
- Kd [1]: ~0.9 nM

B2: HA-tagged Slitrk5 (WT, full-length) (natural protein, UniProt Q810B7 41-957, looked up)
chain: IDYYGEICDNACPCEEKDGILTVSCENRGIISLSEISPPRFPIYHLLLSGNLLSRLYPNEFVNYTGASILHLGSNVIQDIETGAFHGLRGLRRLHLNNNKLELLRDDTFLGLENLEYLQVDYNYISVIEPNAFGKLHMLQVLILNDNLLSGLPNNLFRFVPLTHLDLRGNRLKLLPYVGLLQHMDKVVELQLEENPWNCSCELISLKDWLDSISYSALVGDVVCETPFRLHGRDLDEVSKQELCPRKLISDYEMRPQTPLSTTGYLHTTPASVNSVATSSSAVYKPPLKPPKGTRQPNKPRVRPTSRQPSKDLGYSNYGPSIAYQTKSPVPLECPTACTCNLQISDLGLNVNCQERKIESIAELQPKPYNPKKMYLTENYITVVRRTDFLEATGLDLLHLGNNRISMIQDRAFGDLGNLRRLYLNGNRIERLSPELFYGLQSLQYLFLQYNLIREIQAGTFDPVPNLQLLFLNNNQLQAMPSGVFSGLTLLRLNLRGNSFTSLPVSGVLDQLTSLIQIDLHDNPWDCTCDVVGMKLWIEQLKVGVLVDEVICKAPKKFAETYMRSIKSELLCPDYSDVVVSTPTPSSIQVPSRTNAATPAVRLNSTGTPAGLGAGTGASSVPLSVLILSLLLVFIMSVFVAAGLFVLVMKRRKKNQSDHTSTNNSDVSSFNMQYSVYGGGGGGGGGHPHAHVHHRGPALPKVKTPAGHVYEYIPHPLGHMCKNPIYRSREGNSVEDYKDLHELKVTYSSNHHLQQQPPPPPQQPQQQPPPQMQMQPGEEERRESHHLRSPAYSVSTIEPREDLLSPVQDADRFYRGILEPDKHCSTTPAGSSLPEYPKFPCSPAAYTFSPNYDLRRPHQYLHPGAGESRLREPVLYSPPGAVFVEPNRNEYLELKAKLNVEPDYLEVLEKQTTFSQF
- Kd [2]: ~100 nM
